Experimental data published in ChEMBL document CHEMBL4422612, “Small Molecule Inhibitor that Stabilizes the Autoinhibited Conformation of the Oncogenic Tyrosine Phosphatase SHP2” (J Med Chem, 2019).

Assays:
[1] = compound: CCOc1cc(O)c(C(=O)/C=C/c2ccc(Cl)cc2Cl)cc1CN1CCC=C(n2c(=O)[nH]c3ccccc32)C1; experiment: Mixed type inhibition of human wild-type full length SHP2 assessed as substrate Vmax at 10 uM using H-Glu-Phe-pTyr-Ala-Glu-Val-Gly-Arg-Ser-Pro-Pro-Asp-Pro-Ala-Lys as substrate by Lineweaver-Burk plot analysis (reference value: 5.55 +/- 0.49 uM/min)
[2] = compound: CCOc1cc(O)c(C(=O)/C=C/c2ccc(Cl)cc2Cl)cc1CN1CCC=C(n2c(=O)[nH]c3ccccc32)C1; experiment: Mixed type inhibition of human wild-type full length SHP2 assessed as substrate Km at 20 uM using H-Glu-Phe-pTyr-Ala-Glu-Val-Gly-Arg-Ser-Pro-Pro-Asp-Pro-Ala-Lys as substrate by Lineweaver-Burk plot analysis (reference value: 0.034 +/- 0.012 mM)
[3] = compound: CCOc1cc(O)c(C(=O)/C=C/c2ccc(Cl)cc2Cl)cc1CN1CCC=C(n2c(=O)[nH]c3ccccc32)C1; experiment: Mixed type inhibition of human wild-type full length SHP2 assessed as Kcat/Km ratio at 20 uM using H-Glu-Phe-pTyr-Ala-Glu-Val-Gly-Arg-Ser-ProPro-Asp-Pro-Ala-Lys as substrate by Lineweaver-Burk plot analysis (reference value: 100.3 +/- 25 /mM/sec)
[4] = compound: CCOc1cc(O)c(C(=O)/C=C/c2ccc(Cl)cc2Cl)cc1CN1CCC=C(n2c(=O)[nH]c3ccccc32)C1; experiment: Mixed type inhibition of human wild-type full length SHP2 assessed as substrate Kcat at 20 uM using H-Glu-Phe-pTyr-Ala-Glu-Val-Gly-Arg-Ser-Pro-Pro-Asp-Pro-Ala-Lys as substrate by Lineweaver-Burk plot analysis (reference value: 3.19 +/- 0.28 Sec'-1)
[5] = compound: CCOc1cc(O)c(C(=O)/C=C/c2ccc(Cl)cc2Cl)cc1CN1CCC=C(n2c(=O)[nH]c3ccccc32)C1; experiment: Mixed type inhibition of human wild-type full length SHP2 assessed as substrate Kcat at 10 uM using H-Glu-Phe-pTyr-Ala-Glu-Val-Gly-Arg-Ser-Pro-Pro-Asp-Pro-Ala-Lys as substrate by Lineweaver-Burk plot analysis (reference value: 3.19 +/- 0.28 Sec'-1)
[6] = compound: CCOc1cc(O)c(C(=O)/C=C/c2ccc(Cl)cc2Cl)cc1CN1CCC=C(n2c(=O)[nH]c3ccccc32)C1; experiment: Mixed type inhibition of human wild-type full length SHP2 assessed as substrate Km at 10 uM using H-Glu-Phe-pTyr-Ala-Glu-Val-Gly-Arg-Ser-Pro-Pro-Asp-Pro-Ala-Lys as substrate by Lineweaver-Burk plot analysis (reference value: 0.034 +/- 0.012 mM)
[7] = compound: CCOc1cc(O)c(C(=O)/C=C/c2ccc(Cl)cc2Cl)cc1CN1CCC=C(n2c(=O)[nH]c3ccccc32)C1; experiment: Mixed type inhibition of human wild-type full length SHP2 assessed as Kcat/Km ratio at 10 uM using H-Glu-Phe-pTyr-Ala-Glu-Val-Gly-Arg-Ser-Pro-Pro-Asp-Pro-Ala-Lys as substrate by Lineweaver-Burk plot analysis (reference value: 100.3 +/- 25 /mM/sec)
[8] = compound: CCOc1cc(O)c(C(=O)/C=C/c2ccc(Cl)cc2Cl)cc1CN1CCC=C(n2c(=O)[nH]c3ccccc32)C1; experiment: Mixed type inhibition of human wild-type full length SHP2 assessed as substrate Vmax at 20 uM using H-Glu-Phe-pTyr-Ala-Glu-Val-Gly-Arg-Ser-Pro-Pro-Asp-Pro-Ala-Lys as substrate by Lineweaver-Burk plot analysis (reference value: 5.55 +/- 0.49 uM/min)

B1: Tyrosine-protein phosphatase non-receptor type 11 (Homo sapiens), Q06124 (protein)
chain: MTSRRWFHPNITGVEAENLLLTRGVDGSFLARPSKSNPGDFTLSVRRNGAVTHIKIQNTGDYYDLYGGEKFATLAELVQYYMEHHGQLKEKNGDVIELKYPLNCADPTSERWFHGHLSGKEAEKLLTEKGKHGSFLVRESQSHPGDFVLSVRTGDDKGESNDGKSKVTHVMIRCQELKYDVGGGERFDSLTDLVEHYKKNPMVETLGTVLQLKQPLNTTRINAAEIESRVRELSKLAETTDKVKQGFWEEFETLQQQECKLLYSRKEGQRQENKNKNRYKNILPFDHTRVVLHDGDPNEPVSDYINANIIMPEFETKCNNSKPKKSYIATQGCLQNTVNDFWRMVFQENSRVIVMTTKEVERGKSKCVKYWPDEYALKEYGVMRVRNVKESAAHDYTLRELKLSKVGQGNTERTVWQYHFRTWPDHGVPSDPGGVLDFLEEVHHKQESIMDAGPVVVHCSAGIGRTGTFIVIDILIDIIREKGVDCDIDVPKTIQMVRSQRSGMVQTEAQYRFIYMAVQHYIETLQRRIEEEQKSKRKGHEYTNIKYSLADQTSGDQSPLPPCTPTPPCAEMREDSARVYENVGLMQQQKSFR
Vmax [1]: 2.6 µM/min
Km [2]: 52 µM
kcat/Km [3]: 17200 M⁻¹ s⁻¹
kcat [4]: 0.86 s⁻¹
kcat [5]: 1.5 s⁻¹
Km [6]: 47 µM
kcat/Km [7]: 33200 M⁻¹ s⁻¹
Vmax [8]: 1.5 µM/min
